Here are results for three molecules from EP4763988A1 (Minghui Pharmaceutical (Hangzhou) Ltd., dated 2025).

Read-outs that look alike come from different tables or passages of the source.

The target of assay [1] is T1, human CDCP1 endogenously expressed on tumor cells (HCT116, SW480, HT-29, LNCaP) (human, UniProt Q9H5V8 30-836).
T1 sequence (looked up): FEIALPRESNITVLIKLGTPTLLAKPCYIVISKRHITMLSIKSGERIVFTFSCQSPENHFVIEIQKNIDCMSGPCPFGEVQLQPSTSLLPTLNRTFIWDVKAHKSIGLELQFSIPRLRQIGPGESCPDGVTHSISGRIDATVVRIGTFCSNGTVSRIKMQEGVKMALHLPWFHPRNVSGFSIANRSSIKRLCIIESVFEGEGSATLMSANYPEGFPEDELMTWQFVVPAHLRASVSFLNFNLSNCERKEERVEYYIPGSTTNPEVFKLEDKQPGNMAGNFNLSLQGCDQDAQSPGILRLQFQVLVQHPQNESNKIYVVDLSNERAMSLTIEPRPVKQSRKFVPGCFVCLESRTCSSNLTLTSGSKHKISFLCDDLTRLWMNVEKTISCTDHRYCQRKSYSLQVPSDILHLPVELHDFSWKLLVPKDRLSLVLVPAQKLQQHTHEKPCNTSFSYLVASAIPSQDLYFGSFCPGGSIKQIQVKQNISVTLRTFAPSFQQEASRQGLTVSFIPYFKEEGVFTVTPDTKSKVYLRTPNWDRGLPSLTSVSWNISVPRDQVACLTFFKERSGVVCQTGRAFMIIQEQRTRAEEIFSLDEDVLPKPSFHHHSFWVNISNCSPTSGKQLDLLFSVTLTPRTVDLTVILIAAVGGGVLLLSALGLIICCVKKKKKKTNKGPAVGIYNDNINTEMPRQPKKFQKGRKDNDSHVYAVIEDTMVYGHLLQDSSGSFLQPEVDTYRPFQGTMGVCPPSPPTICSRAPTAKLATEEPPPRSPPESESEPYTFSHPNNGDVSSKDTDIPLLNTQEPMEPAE
In words: cell-based or functional assay.

Assay [2] addresses T1, human CDCP1 endogenously expressed on …. In words: flow cytometry on LNCaP cells endogenously expressing human CDCP1. Background: Flow cytometry measures light scatter and fluorescence of single cells or particles in a stream.
Assay [3] shares this target. In words: flow cytometry on SW480 cells endogenously expressing human CDCP1.
The target is the same in assay [4]. As to the kind of experiment: flow cytometry on HCT116 cells endogenously expressing human CDCP1.
For assay [5], the target named is T2, Human CDCP1, His Tag (KACTUS, Cat.No. CDC-HM101) (human) (UniProt Q9H5V8).
T2 sequence (looked up): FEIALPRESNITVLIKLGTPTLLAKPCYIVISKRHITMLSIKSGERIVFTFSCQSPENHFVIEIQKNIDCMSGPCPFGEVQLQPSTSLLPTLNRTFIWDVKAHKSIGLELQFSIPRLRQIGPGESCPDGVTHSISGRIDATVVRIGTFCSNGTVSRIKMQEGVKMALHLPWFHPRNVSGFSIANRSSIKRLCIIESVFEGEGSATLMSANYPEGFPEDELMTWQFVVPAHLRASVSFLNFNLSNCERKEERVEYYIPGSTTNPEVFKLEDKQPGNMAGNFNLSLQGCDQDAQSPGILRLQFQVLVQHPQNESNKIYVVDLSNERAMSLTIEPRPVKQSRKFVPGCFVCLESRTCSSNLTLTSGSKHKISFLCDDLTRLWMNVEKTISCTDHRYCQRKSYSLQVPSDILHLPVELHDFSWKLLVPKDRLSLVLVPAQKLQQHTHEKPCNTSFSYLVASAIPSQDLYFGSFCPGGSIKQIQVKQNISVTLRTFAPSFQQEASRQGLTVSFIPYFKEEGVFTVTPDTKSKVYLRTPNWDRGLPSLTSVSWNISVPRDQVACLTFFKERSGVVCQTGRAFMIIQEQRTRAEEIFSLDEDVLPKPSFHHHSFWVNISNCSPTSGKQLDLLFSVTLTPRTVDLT
In words: ELISA of E. coli lysate supernatant of the clone on human CDCP1 antigen.

In assay [6] the target is T3, Human CDCP1, His Tag (KACTUS, Cat.No. CDC-HM101) (human, UniProt Q9H5V8 30-667, limits assumed).
T3 construct: Bought protein coated on ELISA plates; also called human CDCP1 antigen; CDCP1 antigen; not shown: His tag
T3 sequence (looked up): T2 sequence (looked up)
In words: ELISA, plate-coated CDCP1 His Tag 0.5 ug/mL, four-parameter fit. (In general: In an ELISA, binding on a coated surface is turned into a signal by an enzyme label.)

Assay [7] has as its target T3, Human CDCP1, His Tag (KACTUS, Cat.No. …). The assay is described as above. The source holds these as a separate data set.

B1: h14A043 (MHAB10-PC2) (antibody, human IgG1, kappa, L234A L235A, V domains shown)
VH: QVQLVQSGAEVKKPGSSVKVSCKASGFNIKDYYMNWVRQAPGQGLEWIGWIDPENANTIYDPKFQGRVTITADESTSTAYMELSSLRSEDTAVYYCYGSSYRFTYWGQGTLVTVSS
VL: EIVLTQSPATLSLSPGERATLSCSASSSVSYLYWYQQKPGQAPRPWIYLTSNLASGVPARFSGSGSGTDFTLTISSLEPEDFAVYYCQQWSSNPFTFGGGTKVEIKR
notes: Variable regions from US20230050380A1 on Human IgG1-Kappa constant regions; also called positive control antibody
As usually defined, the EC50 is the concentration needed to bring the measured effect to its halfway point. A high value points to lower potency in that assay. B1: the “EC50 (pM), endocytosis-mediated cell killing (Fab-ZAP, HCT116 cells)” value in assay [1] is 41 pM. For the same molecule, the half-maximal effective concentration (EC50) in assay [2] was determined as 2.21 µg/mL; in assay [3], 2.42 µg/mL; in assay [4], 11.9 µg/mL.

B2: MH1-6-C-2-50 (VHH)
VHH: QLQLVESGGGLVQPGGSLRLSCAASGSDVSANGMVWHRQAPGKQREWVAVISSSGSTNYADSVKGRFTISRDSDKNTMYLQMNNLKPEDTAVYLCGVAHYGQTYWGKGTLVTVSS
In assay [5], B2 came in with an OD450 of 0.304.

B3: 25A11 (MHAB10-PC1) (antibody, human IgG1, kappa, L234A L235A, V domains shown)
VH: EVQLQQPGAELVKPGASVKMSCKASGYTFTSYYMYWVKQRPGQGLEWIGEINPSHGGTNFNEKFKNKATLTVDKSSSTVYMQLSSLTSEDSAVYYCTRGGNYPYFAMDYWGQGTSVTVSS
VL: DIQMTQTTSSLSASLGDRVTISCRASQDISNYLNWYQQKPDGTVKLLIYYTSRLHSGVPSRFSGSGSGTDYSLTISNLEQEDIATYFCQQGNTLPWTFGGGTKLEIKR
notes: Variable regions from US20080008719A1 on Human IgG1-Kappa constant regions; MW printed 146kDa; also called positive control antibody
Take B3: in assay [6], the EC50 worked out at 0.0115 µg/mL, the Top was 1.9 OD450 and the bottom amounted to 0.0395 OD450. Further, in assay [7], the concentration giving a half-maximal response (EC50) was 0.0101 µg/mL, the Top was 1.35 OD450 and the bottom was 0.041 OD450.
